The values that follow come from patent US20070092489A1.

Values joined by “and” are separate entries in the source; they are usually repeats but may differ in a detail not shown here. Identical values can stand only once.

The target of experiment [1] is adenovirus fiber knob as shown on Av3GFP adenoviral vector particles. Briefly: cell-based or functional assay.
Experiment [2] addresses adenovirus fiber knob as shown on Cy3-labeled adenoviral vector particles. In words: depletion of Cy3-labeled adenovirus from suspension by fluorimetry; D1 tethered on nitinol.
The target is the same in experiment [3]. In words: depletion of Cy3-labeled adenovirus from suspension by fluorimetry; D1 tethered on Co/Cr alloy.
Experiment [4] has the same target. Briefly: depletion of Cy3-labeled adenovirus; D1-tethered against anti-knob Ab-tethered metal surfaces.
Experiment [5] has the same target. In words: depletion of Cy3-labeled adenovirus from suspension by fluorimetry; D1 tethered on stainless steel.

“D1-FGF2 fusion protein (CAR D1 ligated to basic fibroblast growth factor FGF2 by intein-mediated protein ligation) (from UniProt P78310 15-140; P09038 134-288)”: the concentration required to achieve maximal GFP expression (Av3GFP transduction of SKOV-3 cells) in experiment [1] was found to be 14 nM.
Consider “thiol-containing form of the D1 domain of the coxsackie-adenovirus receptor (D1-Cys), covalently immobilized on a metal surface (from UniProt P78310 15-140)”, for which the amount of Ad bound per cm^2 of the surface in experiment [2] was 1.16e+10 Ad per cm^2; in experiment [3], 1.51e+10 Ad per cm^2; in experiment [5] it was 1.08e+10 Ad per cm^2. For the same substance, in experiment [4], the fold greater adenovirus binding than the specific antibody (anti-knob Ab) is 2 fold and 4 fold.
